Assay results from US20180355046A1 (Boehringer Ingelheim, published 2018).

Target: human TrkB receptor on cells (human, UniProt Q16620 32-822)
Assay: cell-based or functional assay

Sequence of human TrkB receptor on cells (Q16620 32-822): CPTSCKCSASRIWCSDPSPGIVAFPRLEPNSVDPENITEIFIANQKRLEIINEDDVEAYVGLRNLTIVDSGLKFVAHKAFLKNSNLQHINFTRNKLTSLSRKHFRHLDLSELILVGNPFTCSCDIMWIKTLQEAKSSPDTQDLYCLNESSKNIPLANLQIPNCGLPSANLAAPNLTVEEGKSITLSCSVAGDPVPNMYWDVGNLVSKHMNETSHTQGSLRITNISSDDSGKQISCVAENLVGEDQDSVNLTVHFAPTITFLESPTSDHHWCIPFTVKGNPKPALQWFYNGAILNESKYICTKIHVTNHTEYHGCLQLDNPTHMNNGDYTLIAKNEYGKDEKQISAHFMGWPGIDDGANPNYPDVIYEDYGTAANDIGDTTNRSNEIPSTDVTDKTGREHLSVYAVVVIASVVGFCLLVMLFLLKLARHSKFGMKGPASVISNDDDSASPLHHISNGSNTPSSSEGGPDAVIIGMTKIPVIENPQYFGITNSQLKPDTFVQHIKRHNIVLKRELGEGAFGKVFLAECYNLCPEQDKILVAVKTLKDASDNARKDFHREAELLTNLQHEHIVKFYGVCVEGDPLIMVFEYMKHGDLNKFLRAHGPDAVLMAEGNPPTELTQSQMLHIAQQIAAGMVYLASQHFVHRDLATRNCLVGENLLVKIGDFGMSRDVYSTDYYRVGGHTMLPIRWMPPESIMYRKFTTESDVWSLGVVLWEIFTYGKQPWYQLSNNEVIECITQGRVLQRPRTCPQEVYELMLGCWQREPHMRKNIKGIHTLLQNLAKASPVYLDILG

B1: brain-derived neurotrophic factor (BDNF) (ligand, UniProt P23560 129-247, looked up)
chain: HSDPARRGELSVCDSISEWVTAADKKTAVDMSGGTVTVLEKVPVSKGQLKQYFYETKCNPMGYTKEGCRGIDKRHWNSQCRTTQSYVRALTMDSKKRIGWRFIRIDTSCVCTLTIKRGR
AKT 1/2/3-P (T308), differentiated SH-SY5Y cells, EC50: 255 pM | TrkB-P (TrkB phosphorylation, AlphaLISA, differentiated SH-SY5Y cells), EC50: 430 pM
